Data: US20220282217A1, “COMPOSITIONS AND METHODS FOR PREPARING T CELL COMPOSITIONS AND USES THEREOF” (priority 2019, published 2022)
Each block holds one binder with its values, some of them ahead of it.

What was measured:
Conditions in all cases: remark: other sources report otherwise
[1] = target: HLA class I molecule A02.01; assay: pMHC-I dissociation half-life, 125I-b2m
[2] = target: HLA class I molecule A03.01; assay: pMHC-I dissociation half-life, 125I-b2m
[3] = target: HLA class I molecule A02.01; assay: competition with radiolabeled reference peptide on purified MHC I
[4] = target: HLA class I molecule A03.01; assay: as above
HLA-A02.01 (human) [5] = assay: pMHC-I dissociation half-life, 125I-b2m
HLA-A02.01 (human) [6] = assay: competition with radiolabeled reference peptide, purified MHC I
[7] = target: HLA class I molecule B08.01; assay: pMHC-I dissociation half-life, 125I-b2m
HLA-A02.01 (human) [8] = assay: competition vs radiolabeled reference peptide on purified MHC I, gel filtration
HLA-A02.01 (human) [9] = assay: pMHC-I complex dissociation at 37 C, 125I-b2m, half-life
HLA-A24.02 (human) [10] = assay: pMHC-I dissociation half-life, 125I-b2m
HLA-A24.02 (human) [11] = assay: competition with radiolabeled reference peptide, purified MHC I
HLA-A24.02 (human) [12] = assay: competition vs radiolabeled reference peptide on purified MHC I, gel filtration
HLA-A24.02 (human) [13] = assay: pMHC-I complex dissociation at 37 C, 125I-b2m, half-life
[14] = target: T1, HLA-A02.01 class I MHC molecule (prepared complex) (human); assay: dissociation of peptide-MHC-I complex at 37 C, 125I-labelled b2m, scintillation
[15] = target: T1, HLA-A02.01 class I MHC molecule …; assay: displacement of radiolabeled reference peptide from class I MHC, gel filtration; 'Affinity (nM)'
[16] = target: HLA-A24.02 class I MHC molecule (prepared complex) (human); assay: dissociation of peptide-MHC-I complex at 37 C, 125I-labelled b2m, scintillation
HLA-B07.02 (human) [17] = assay: competition vs radiolabeled reference peptide on purified MHC I, gel filtration
HLA-B07.02 (human) [18] = assay: pMHC-I complex dissociation at 37 C, 125I-b2m, half-life

IC50 (HLA-A02.01 (human) [8]): 8540 nM
Stability (T1/2 (h)) (HLA-A02.01 (human) [9]): 0 h
Binder: STVQLIMQL […, listing 1 of 2 here]

IC50 (HLA-A02.01 (human) [8]): 797 nM
IC50 (HLA-A24.02 (human) [12]): 444 nM
Stability (T1/2 (h)) (HLA-A02.01 (human) [9]): 0 h
Stability (T1/2 (h)) (HLA-A24.02 (human) [13]): 6.3 h
Binder: PLYGLLLEML

Stability (T1/2 (h)) [1]: 0.6 h
Stability (T1/2 (h)) [7]: 0.4 h
Stability (T1/2 (h)) [2]: 0 h
IC50 [4]: 21100 nM
Binder: YMFLKAESKI

IC50 (HLA-A02.01 (human) [8]): 1610 nM
Stability (T1/2 (h)) (HLA-A02.01 (human) [9]): 0.4 h
Binder: IMQLMPFGC […, listing 1 of 2 here]

Stability (T1/2 (h)) (HLA-A02.01 (human) [5]): 0 h
IC50 (HLA-A02.01 (human) [6]): 9610 nM
Binder: NQRPILTII

Stability (T1/2 (h)) [1]: 9.5 h
Stability (T1/2 (h)) [7]: 0 h
Binder: FLQEQYHEA

IC50 (HLA-A02.01 (human) [8]): 5930 nM
Stability (T1/2 (h)) (HLA-A02.01 (human) [9]): 0 h
Binder: QLIMQLMPFG […, listing 1 of 2 here]

Stability (T1/2 (h)) (HLA-A02.01 (human) [5]): 0 h
Stability (T1/2 (h)) (HLA-A24.02 (human) [10]): 0 h
IC50 (HLA-A02.01 (human) [6]): 19 nM
IC50 (HLA-A24.02 (human) [11]): 52 nM
Binder: TQLARFFPI

IC50 (HLA-A02.01 (human) [8]): 4440 nM
Stability (T1/2 (h)) (HLA-A02.01 (human) [9]): 0 h
Binder: YMANGSLLN

IC50 (HLA-A02.01 (human) [8]): 87 nM
IC50 (HLA-B07.02 (human) [17]): 1110 nM
Stability (T1/2 (h)) (HLA-A02.01 (human) [9]): 3 h
Stability (T1/2 (h)) (HLA-B07.02 (human) [18]): 0 h
Binder: SLLNYLREM

IC50 (HLA-B07.02 (human) [17]): 2270 nM
Stability (T1/2 (h)) (HLA-A02.01 (human) [9]): 0.4 h
Stability (T1/2 (h)) (HLA-B07.02 (human) [18]): 0 h
Binder: MQLMPFGCL

IC50 (HLA-A02.01 (human) [8]): 26 nM
IC50 (HLA-A24.02 (human) [12]): 2770 nM
IC50 (HLA-B07.02 (human) [17]): 583 nM
Stability (T1/2 (h)) (HLA-A02.01 (human) [9]): 0.5 h
Stability (T1/2 (h)) (HLA-A24.02 (human) [13]): 0.2 h
Stability (T1/2 (h)) (HLA-B07.02 (human) [18]): 0.4 h
Binder: SLPRFILMEL

IC50 (HLA-A02.01 (human) [8]): 4410 nM
Stability (T1/2 (h)) (HLA-A02.01 (human) [9]): 0 h
Binder: LTINKEEAL

IC50 (HLA-A02.01 (human) [8]): 413 nM
Stability (T1/2 (h)) (HLA-A02.01 (human) [9]): 0 h
Binder: LQSLPRFILM

IC50 (HLA-A02.01 (human) [8]): 3510 nM
Stability (T1/2 (h)) (HLA-A02.01 (human) [9]): 0 h
Binder: LIMQLMPFG […, listing 1 of 2 here]

Stability (half-life (hr.)) [14]: 0 min
IC50 [15]: 5210 nM
Binder: QLIMQLMPFG [EGFR_T790M peptide …, listing 2 of 2 here]

Stability (T1/2 (h)) (HLA-A02.01 (human) [5]): 0.5 h
IC50 (HLA-A02.01 (human) [6]): 282 nM
Binder: GMNWRPILTI

Stability (T1/2 (h)) (HLA-A02.01 (human) [5]): 0.3 h
Stability (T1/2 (h)) (HLA-A24.02 (human) [10]): 0 h
IC50 (HLA-A02.01 (human) [6]): 1200 nM
IC50 (HLA-A24.02 (human) [11]): 16300 nM
Binder: SMNRRPILTI

Stability (half-life (hr.)) [14]: 22.2 min
IC50 [15]: 1210 nM
Binder: IMQLMPFGC [EGFR_T790M peptide …, listing 2 of 2 here]

IC50 (HLA-A02.01 (human) [8]): 5490 nM
IC50 (HLA-A24.02 (human) [12]): 4560 nM
Stability (T1/2 (h)) (HLA-A02.01 (human) [9]): 0 h
Stability (T1/2 (h)) (HLA-A24.02 (human) [13]): 0 h
Binder: VQLIMQLMPF

Stability (T1/2 (h)) (HLA-A02.01 (human) [9]): 6.6 h
Binder: YTLDVLERC

IC50 (HLA-A02.01 (human) [8]): 1250 nM
IC50 (HLA-B07.02 (human) [17]): 2650 nM
Stability (T1/2 (h)) (HLA-A02.01 (human) [9]): 1.2 h
Stability (T1/2 (h)) (HLA-B07.02 (human) [18]): 0 h
Binder: WLHKRGKYI

IC50 (HLA-A02.01 (human) [8]): 227 nM
Stability (T1/2 (h)) (HLA-A02.01 (human) [9]): 0.3 h
Stability (T1/2 (h)) (HLA-A24.02 (human) [13]): 0.4 h
Binder: QLIMQLMPF […, listing 2 of 2 here]

Second part, the binder before the results:

Binder: VLHECNSLYI
Stability (T1/2 (h)) [1]: 5.1 h
Stability (T1/2 (h)) [2]: 0 h
IC50 [3]: 10 nM
IC50 [4]: 10500 nM

Binder: CMGSMNRRPI
Stability (T1/2 (h)) (HLA-A02.01 (human) [5]): 0 h
IC50 (HLA-A02.01 (human) [6]): 1990 nM

Binder: FQNGKMALSA
Stability (T1/2 (h)) [1]: 0 h
Stability (T1/2 (h)) [7]: 0 h
IC50 [3]: 6160 nM

Binder: LVVVGADGV
Measured stability (HLA-A02.01 (human) [5]): 0 h
Measured Affinity (HLA-A02.01 (human) [6]): 977 nM

Binder: MNWRPILTI
Stability (T1/2 (h)) (HLA-A02.01 (human) [5]): 3.8 h
Stability (T1/2 (h)) (HLA-A24.02 (human) [10]): 0.2 h
IC50 (HLA-A02.01 (human) [6]): 516 nM
IC50 (HLA-A24.02 (human) [11]): 6980 nM

Binder: ALQPLQPHA
IC50 [3]: 604 nM

Binder: WMTETLFDI
Stability (T1/2 (h)) (HLA-A02.01 (human) [5]): 4 h
Stability (T1/2 (h)) (HLA-A24.02 (human) [10]): 0 h
IC50 (HLA-A02.01 (human) [6]): 14 nM
IC50 (HLA-A24.02 (human) [11]): 713 nM

Binder: CMGGMNWRPI
Stability (T1/2 (h)) (HLA-A02.01 (human) [5]): 0.4 h
Stability (T1/2 (h)) (HLA-A24.02 (human) [10]): 0 h
IC50 (HLA-A02.01 (human) [6]): 346 nM
IC50 (HLA-A24.02 (human) [11]): 4450 nM

Binder: FLPSTLKSL
IC50 (HLA-A24.02 (human) [12]): 995 nM
Stability (T1/2 (h)) (HLA-A24.02 (human) [13]): 1 h

Binder: STVQLIMQL [EGFR_T790M peptide …, listing 2 of 2 here]
Stability (half-life (hr.)) [14]: 0 min
IC50 [15]: 7260 nM

Binder: LVVVGACGV
Measured stability (HLA-A02.01 (human) [5]): 0.6 h
Measured Affinity (HLA-A02.01 (human) [6]): 667 nM

Binder: VMAGLGSPYV
Stability (T1/2 (h)) [1]: 2.9 h
Stability (T1/2 (h)) [2]: 0 h
IC50 [3]: 102 nM
IC50 [4]: 11200 nM

Binder: IMQLMPFGCL
IC50 (HLA-A02.01 (human) [8]): 837 nM
IC50 (HLA-A24.02 (human) [12]): 18100 nM
Stability (T1/2 (h)) (HLA-A02.01 (human) [9]): 0.5 h
Stability (T1/2 (h)) (HLA-A24.02 (human) [13]): 0 h

Binder: QLIMQLMPF [EGFR_T790M peptide …, listing 1 of 2 here]
Stability (half-life (hr.)) [16]: 22.1 min
Stability (half-life (hr.)) [14]: 20.4 min
IC50 [15]: 193 nM

Binder: LIVSRTLLL
IC50 [3]: 174 nM

Binder: LVVVGAVGV
Measured stability (HLA-A02.01 (human) [5]): 0.6 h

Binder: MALNSEALSV
Stability (T1/2 (h)) (HLA-A02.01 (human) [5]): 0.7 h
IC50 (HLA-A02.01 (human) [6]): 129 nM

Binder: FLLALWECSL
Stability (T1/2 (h)) [1]: 10.8 h
Stability (T1/2 (h)) [7]: 0 h

Binder: LIMQLMPFG [EGFR_T790M peptide …, listing 2 of 2 here]
Stability (half-life (hr.)) [14]: 0 min
IC50 [15]: 3340 nM

Binder: RVAKIADFGM
IC50 (HLA-A02.01 (human) [8]): 125 nM
IC50 (HLA-B07.02 (human) [17]): 9720 nM
Stability (T1/2 (h)) (HLA-A02.01 (human) [9]): 0.5 h
Stability (T1/2 (h)) (HLA-B07.02 (human) [18]): 0.2 h

Binder: SVCFFFFSV
IC50 (HLA-A02.01 (human) [8]): 175 nM
Stability (T1/2 (h)) (HLA-A02.01 (human) [9]): 9.4 h

Binder: MANGSLLNYL
IC50 (HLA-A02.01 (human) [8]): 1080 nM
IC50 (HLA-B07.02 (human) [17]): 17700 nM
Stability (T1/2 (h)) (HLA-A02.01 (human) [9]): 0 h
Stability (T1/2 (h)) (HLA-B07.02 (human) [18]): 0 h

Binder: MQLMPFGCLL
IC50 (HLA-A02.01 (human) [8]): 20 nM
IC50 (HLA-A24.02 (human) [12]): 23600 nM
Stability (T1/2 (h)) (HLA-A02.01 (human) [9]): 0.4 h
Stability (T1/2 (h)) (HLA-A24.02 (human) [13]): 0 h
